Positions count from the first letter of the chain named. In names and notes the source's numbering stands.
B1: AAV9 VP3 VLP A273N, A472H, E500P (other)
VP3: MASGGGAPVADNNEGADGVGSSSGNWHCDSQWLGDRVITTSTRTWALPTYNNHLYKQISNSTSGGSSNDNNYFGYSTPWGYFDFNRFHCHFSPRDWQRLINNNWGFRPKRLNFKLFNIQVKEVTDNNGVKTIANNLTSTVQVFTDSDYQLPYVLGSAHEGCLPPFPADVFMIPQYGYLTLNDGSQAVGRSSFYCLEYFPSQMLRTGNNFQFSYEFENVPFHSSYAHSQSLDRLMNPLIDQYLYYLSKTINGSGQNQQTLKFSVAGPSNMHVQGRNYIPGPSYRQQRVSTTVTQNNNSPFAWPGASSWALNGRNSLMNPGPAMASHKEGEDRFFPLSGSLIFGKQGTGRDNVDADKVMITNEEEIKTTNPVATESYGQVATNHQSAQAQAQTGWVQNQGILPGMVWQDRDVYLQGPIWAKIPHTDGNFHPSPLMGGFGMKHPPPQILIKNTPVPADPPTAFNKDKLNSFITQYSTGQVSVEIEWELQKENSKRWNPEIQYTSNYYKSNNVEFAVNTEGVYSEPRPIGTRYLTRNL
notes: VP3-only VLP
B2: AAV9 VP3 VLP A273N, Q387K, A472H, E500P (other)
VP3: B1 VP3 with Q185K
notes: VP3-only VLP
B3: AAV9 VP3 VLP Q387K, A472H, E500P (other)
VP3: B1 VP3 with N71A, Q185K
notes: VP3-only VLP
B4: AAV9 VP3 VLP I451Y, S454I, E500P (other)
chain: B1 VP3 with N71A, I249Y, S252I, H270A
notes: VP3-only VLP
B5: AAV9 VP3 VLP A273N/Q387K/E500R (other)
VP3: B1 VP3 with Q185K, H270A, P298R
notes: VP3-only VLP; also called AN.QK.ER
B6: AAV9 VP3 VLP I451Y, S454I, E500P, P504T (other)
chain: B1 VP3 with N71A, I249Y, S252I, H270A, P302T
modifications: One VP3 subunit is given; in the assay it stood assembled as a VP3-only icosahedral VLP capsid.
notes: VP3-only VLP
B7: AAV9 VP3 VLP I451Y, S454I, E500P, P504I (other)
chain: B1 VP3 with N71A, I249Y, S252I, H270A, P302I
modifications: One VP3 subunit is given; in the assay it stood assembled as a VP3-only icosahedral VLP capsid.
notes: VP3-only VLP
B8: AAV2 VP3 VLP A593E (other)
chain: MATGSGAPMADNNEGADGVGNSSGNWHCDSTWMGDRVITTSTRTWALPTYNNHLYKQISSQSGASNDNHYFGYSTPWGYFDFNRFHCHFSPRDWQRLINNNWGFRPKRLNFKLFNIQVKEVTQNDGTTTIANNLTSTVQVFTDSEYQLPYVLGSAHQGCLPPFPADVFMVPQYGYLTLNNGSQAVGRSSFYCLEYFPSQMLRTGNNFTFSYTFEDVPFHSSYAHSQSLDRLMNPLIDQYLYYLSRTNTPSGTTTQSRLQFSQAGASDIRDQSRNWLPGPCYRQQRVSKTSADNNNSEYSWTGATKYHLNGRDSLVNPGPAMASHKDDEEKFFPQSGVLIFGKQGSEKTNVDIEKVMITDEEEIRTTNPVATEQYGSVSTNLQRGNRQAATEDVNTQGVLPGMVWQDRDVYLQGPIWAKIPHTDGHFHPSPLMGGFGLKHPPPQILIKNTPVPANPSTTFSAAKFASFITQYSTGQVSVEIEWELQKENSKRWNPEIQYTSNYNKSVNVDFTVDTNGVYSEPRPIGTRYLTRNL
notes: VP3-only VLP
B9: AAV2 VP3 VLP T592D/A593E (other)
chain: B8 chain with T390D
notes: VP3-only VLP
B10: AAV receptor (AAVR) fragment comprising the domains PKD1 and PKD2 (residues V305-V499) (receptor)
chain: VIKELVVSAGESVQITLPKNEVQLNAYVLQEPPKGETYTYDWQLITHPRDYSGEMEGKHSQILKLSKLTPGLYEFKVIVEGQNAHGEGYVNVTVKPEPRKNRPPIAIVSPQFQEISLPTTSTVIDGSQSTDDDKIVQYHWEELKGPLREEKISEDTAILKLSKLVPGNYTFSLTVVDSDGATNSTTANLTVNKAV
B11: AAV2 VP3 VLP T592D (other)
chain: B8 chain with T390D, E391A
notes: VP3-only VLP

Columns and labels:
[1] = biological target: AAV receptor (AAVR) on HEK293 cells (Homo sapiens (Human)) (UniProt Q8IZA0); assay: cell-based or functional assay
Chain of AAV receptor (AAVR) on HEK293 cells (Homo sapiens (Human)) (Q8IZA0 whole entry): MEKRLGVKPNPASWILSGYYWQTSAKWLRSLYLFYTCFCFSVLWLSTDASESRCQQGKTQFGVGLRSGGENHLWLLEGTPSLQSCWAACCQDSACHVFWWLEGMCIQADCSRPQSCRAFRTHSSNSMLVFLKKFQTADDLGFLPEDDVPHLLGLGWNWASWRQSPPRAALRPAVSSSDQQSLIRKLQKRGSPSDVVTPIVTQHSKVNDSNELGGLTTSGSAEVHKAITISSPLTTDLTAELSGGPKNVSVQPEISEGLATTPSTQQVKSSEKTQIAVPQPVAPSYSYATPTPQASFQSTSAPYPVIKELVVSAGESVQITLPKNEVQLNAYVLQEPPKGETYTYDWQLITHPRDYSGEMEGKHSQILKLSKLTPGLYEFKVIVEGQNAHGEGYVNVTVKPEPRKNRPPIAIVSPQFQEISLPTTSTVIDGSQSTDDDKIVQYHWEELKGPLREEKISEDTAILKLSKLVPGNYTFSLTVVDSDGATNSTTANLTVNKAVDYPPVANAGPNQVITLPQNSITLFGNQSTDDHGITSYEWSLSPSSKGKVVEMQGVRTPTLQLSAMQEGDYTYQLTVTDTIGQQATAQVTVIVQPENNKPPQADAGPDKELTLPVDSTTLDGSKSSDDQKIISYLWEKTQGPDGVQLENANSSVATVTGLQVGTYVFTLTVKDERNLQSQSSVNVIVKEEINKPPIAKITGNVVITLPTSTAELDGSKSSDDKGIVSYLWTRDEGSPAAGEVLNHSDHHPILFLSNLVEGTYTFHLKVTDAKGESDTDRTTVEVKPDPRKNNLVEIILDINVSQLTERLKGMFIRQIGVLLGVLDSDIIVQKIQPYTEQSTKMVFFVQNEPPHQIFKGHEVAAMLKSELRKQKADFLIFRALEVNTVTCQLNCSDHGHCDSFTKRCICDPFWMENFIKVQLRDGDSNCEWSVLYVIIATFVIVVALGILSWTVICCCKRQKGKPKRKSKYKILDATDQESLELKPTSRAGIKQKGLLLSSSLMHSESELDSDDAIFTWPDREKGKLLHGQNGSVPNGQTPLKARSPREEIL

[2] = biological target: B10; assay: SPR; against wild-type VLP
[3] = biological target: B10; assay: SPR; captured AAV9 VP3 VLP, AAVR analyte
[4] = biological target: B10; assay: SPR, single replicate; affinity against wild-type AAV9 VLP
[5] = biological target: B10; assay: SPR, single replicate; captured AAV9 VP3 VLP, AAVR analyte
[6] = biological target: B10; assay: SPR, three replicates; affinity against wild-type AAV9 VLP
[7] = biological target: B10; assay: SPR, three replicates; captured AAV9 VP3 VLP, AAVR analyte
[8] = biological target: B10; assay: SPR; affinity against wild-type AAV2 VLP
Wild-type AAV2 VP3 VLP = biological target: T1, Wild-type AAV2 VP3 VLP (adeno-associated virus serotype 2 (AAV2), UniProt P03135 203-735); assay: SPR; captured AAV2 VP3 VLP, AAVR analyte
T1 construct: VP3-only VLP; also called Wild-type AAV2 VLP (WT); WT

AAV2 VP3 VLP T592D = biological target: B11; assay: SPR; captured AAV2 VP3 VLP, AAVR analyte
AAV2 VP3 VLP A593E = biological target: B8; assay: SPR; captured AAV2 VP3 VLP, AAVR analyte
AAV2 VP3 VLP T592D/A593E = biological target: B9; assay: SPR; captured AAV2 VP3 VLP, AAVR analyte

AAV9 comprising a Q387K amino acid substitution mutation (full AAV with VP1, VP2 and VP3)
Expression of a transgene (GFP) in transduced HEK293 cells [1]: 3 fold

B1
KD Fold Change [2]: 455 fold | Kd [3]: 5.14 nM | koff [3]: 0.000236 s⁻¹ | kon [3]: 45900 M⁻¹ s⁻¹

B2
KD Fold Change [2]: 5560 fold | Kd [3]: 0.421 nM | koff [3]: 3.96e-05 s⁻¹ | kon [3]: 94000 M⁻¹ s⁻¹

B3
KD Fold Change [2]: 3370 fold | Kd [3]: 0.694 nM | koff [3]: 0.000338 s⁻¹ | kon [3]: 487000 M⁻¹ s⁻¹

B4
KD Fold Change [2]: 217 fold

B5
KD Fold Change [2]: 117 fold | Kd [3]: 20 nM | koff [3]: 0.000667 s⁻¹ | kon [3]: 33300 M⁻¹ s⁻¹ | Fold change vs WT [4]: 53 fold | Kd [5]: 80 nM | koff [5]: 0.000962 s⁻¹ | kon [5]: 11800 M⁻¹ s⁻¹ | Fold change vs WT [6]: 117 fold | Kd [7]: 20 nM | koff [7]: 0.000667 s⁻¹ | kon [7]: 33300 M⁻¹ s⁻¹

B6
KD Fold Change [2]: 146 fold

B7
KD Fold Change [2]: 214 fold

B8
Fold change vs WT [8]: ~4 fold

B9
Fold change vs WT [8]: ~6 fold

B10
Kd (Wild-type AAV2 VP3 VLP): 2100 nM | koff (Wild-type AAV2 VP3 VLP): 0.0311 s⁻¹ | kon (Wild-type AAV2 VP3 VLP): 15100 M⁻¹ s⁻¹ | Kd (AAV2 VP3 VLP T592D): 420 nM | koff (AAV2 VP3 VLP T592D): 0.00797 s⁻¹ | kon (AAV2 VP3 VLP T592D): 19100 M⁻¹ s⁻¹ | Kd (AAV2 VP3 VLP A593E): 520 nM | koff (AAV2 VP3 VLP A593E): 0.0111 s⁻¹ | kon (AAV2 VP3 VLP A593E): 21600 M⁻¹ s⁻¹ | Kd (AAV2 VP3 VLP T592D/A593E): 330 nM | koff (AAV2 VP3 VLP T592D/A593E): 0.00652 s⁻¹ | kon (AAV2 VP3 VLP T592D/A593E): 19600 M⁻¹ s⁻¹

B11
Fold change vs WT [8]: 5 fold

From patent US20250388628A1 (Genentech, published 2025)
